Measurements as given in paper PMC12331092, “An arginine switch drives the stepwise activation of β-arrestin by CXCR7” (PLOS Biology, 2025).
Square brackets hold non-standard residues; d marks the D form. Ends that are not written are not given here. pT = C[C@@H](OP(=O)(O)O)[C@H](N)C(=O)O; pS = N[C@@H](COP(=O)(O)O)C(=O)O

Legend:
Details in all cases: both partners purified
[1] = target: T1, Rattus norvegicus wild-type β-arrestin2 (Rattus norvegicus, UniProt P29067 1-410); test: ITC; 1 mM peptide injected (2.5 μL, 200 s intervals) into 200 μM βarr2 in the cell; 298 K; 20 mM HEPES pH 7.0, 200 mM NaCl; two-site model for the wild type
T1 construct: β-arrestin2, Rattus norvegicus, UniProt P29067, cloned into pET-28a; also called βarr2; wild-type βarr2; source: E. coli BL21(DE3)pLysS, purified (Ni-sepharose, HiTrap heparin, Superdex 200 gel filtration); not shown: His6, N-terminal, kept
T1 sequence (P29067 whole entry): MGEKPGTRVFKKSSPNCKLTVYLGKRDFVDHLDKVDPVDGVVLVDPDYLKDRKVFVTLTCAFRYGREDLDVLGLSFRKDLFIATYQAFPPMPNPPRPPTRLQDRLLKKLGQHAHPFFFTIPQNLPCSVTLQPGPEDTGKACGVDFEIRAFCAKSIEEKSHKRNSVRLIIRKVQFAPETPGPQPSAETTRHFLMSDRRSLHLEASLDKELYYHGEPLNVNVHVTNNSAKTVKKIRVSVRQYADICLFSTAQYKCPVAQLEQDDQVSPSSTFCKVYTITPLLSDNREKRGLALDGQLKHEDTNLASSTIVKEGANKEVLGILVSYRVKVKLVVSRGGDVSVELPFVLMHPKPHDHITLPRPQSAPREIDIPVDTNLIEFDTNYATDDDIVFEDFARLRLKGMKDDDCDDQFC

βarr2 R166A mutant = target: T2, βarr2 R166A mutant (Rattus norvegicus, UniProt P29067 1-410, R166A); test: as above
T2 construct: β-arrestin2, rat (as the wild type m1), with R166A; also called R166A (site I); source: purified
T2 sequence (P29067 whole entry R166A): as the sequence (P29067 whole entry) above, with R166A counted along it

βarr2 R394A mutant = target: T3, βarr2 R394A mutant (Rattus norvegicus, UniProt P29067 1-410, R394A); test: as above
T3 construct: β-arrestin2, rat (as the wild type m1), with R394A; also called R394A (site II); source: purified
T3 sequence (P29067 whole entry R394A): as the sequence (P29067 whole entry) above, with R394A counted along it

[2] = target: T1, Rattus norvegicus wild-type β-arrestin2; test: pull-down; 20 μg βarr2 pre-incubated with or without peptide (5:1 peptide:βarr2, 4 °C, 1 h), then GST beads with 30 μg GST-clathrin, 2 h at 4 °C; 20 mM Tris-HCl pH 8.0, 100 mM NaCl, 1 mM DTT; GSH elution, anti-His Western blot

B1: C7pp2, phosphopeptide from the carboxyl terminus of CXCR7 (residues 346-359) (peptide, UniProt P25106 346-359, looked up)
peptide: ASRV[pS]E[pT]EY[pS]ALEQ
notes: CXCR7 (atypical chemokine receptor), C-terminal residues 346-359; also called distal phospho-site cluster PxPxxP; source: synthetic peptide (NovoPep and Tufts University Core Facility)
[1]
  binding result: binds
βarr2 R166A mutant
  Kd: 16.4 µM
βarr2 R394A mutant
  Kd: 1.1 µM

B2: C7pp3, phosphopeptide from the carboxyl terminus of CXCR7 (residues 346-362) (peptide, UniProt P25106 346-362, looked up)
peptide: A[pS]RV[pS]E[pT]EY[pS]ALEQ[pS][pT]K
notes: CXCR7, C-terminal residues 346-362; source: synthetic peptide (NovoPep and Tufts University Core Facility)
[2]
  binding result: binds
